# Experimental data: the nanobody polyreactivity screen of Harvey et al. (2022)
# Assay: yeast display, Sf9 membrane polyspecificity reagent, FACS + sequencing; frameworks hold sequencing errors
# How it was run: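 Synthetic nanobody libraries on Saccharomyces cerevisiae BJ5465 were galactose-induced for 36–48 hours, stained 1 hour at 4 °C with 10% biotinylated, detergent-solubilized Sf9 membrane reagent and enriched on streptavidin microbeads. FACS then separated cells into low and high (top ~1%) gates by anti-HA (expression) and streptavidin (reagent binding) fluorescence. Genes were colony-PCR amplified, MiSeq 2 × 250 sequenced and CDR-length filtered. A clone's polyreactivity label is that of its gate of origin.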
row,Sequence,polyreactivity (PSR sort gate)
1,QVQLVESGGGLVQAGGSLRLSCAASRSTITYNAMGWYRQAPGKERELVAAISFSGGRTYYADSVKGRFTISRDNAKNIVYLHMNRLKPEDTAVYYCAKRYGASFYYWGQGTQVTVSS,high polyreactivity
2,QVQLVESGGGLVQAGGSLRLSCAASRSTLCQNAMGWYRQAPGKEREFVADNSGSGDSTYYADSVKGRFTISRDHANNTVYLQLNSLTPEDTAVYYCATPSPHVGLKWEYDSWGQGTQVTVSS,low polyreactivity
3,QVQLVESGGGLVQAGGSLRLSCAASRYIFAHYAMGWYRQAPGKERELVAAISTRGGSTYYADSVKGRFTISRDNAKNTVYLQMNSLKPEDTAVYYCNNYRYAGITAEFYYWGQGTQVTVSS,high polyreactivity
4,QVQLVESGGGLVQAGGSLRLSCAASRYIFVRYAMGWYRQAPGKERELVAPNNSSGGRTYYAHSVKGRFTISRDNAKNTVYLQMNSLKQEDTAVYYCAAYGYYRSGYRALEGYWGQGTQVTVSS,high polyreactivity
5,QVQLVESGGGLVQAGGSLRLSCAASSRIFVAKAMGWYRKAPGKERELVATITRGASTNYADSVKGRFTISRDNAKNTVYLQMNRLKPEDTAVYYCDKRSYTGYEYWGQGTQVTVSS,low polyreactivity
6,QVQLVESGGGLVQAGGSLRLSCAASVFNFIYYTMGWYRPAPGKERELVAAISWSGGGTYYADSVKGRFTISRDNAKNTVYLLMNRLKPEDTAVYYCAAYWYVSSRDFEYWGQGTQVTVSS,high polyreactivity
7,QVQLVESGGGLVQAGGSLRLSCAASVFTCAVYVMGWYRQAPGKERELVANISFSVGSTYYADSVKGRFTISRDYAKNTVYLQMNSLKPEDTAVYYCNADPPPEYYPDKDNYWGQGTQVTVSS,low polyreactivity
8,QVQLVESGGGLVQAGGSLRLSCAASVFTFPPYAMGWSRQAPGKERELVAAISSAGSTKYADSVKGRFTISRDNAKNTVYLQMNSLKPEDTAVYYCAARWARSYDYWGQGTQVTVSS,low polyreactivity
9,QVQLVESGGGLVQAGGSLRLSCAASVLIFYWYAMGWYRQAPGKERELVAAISSAGSTNYADSVKGRFTISRDNAKNTVYLQMNSLKPEDTAVYYCYARIAYRYSNYGYWGQGTQVTVSS,low polyreactivity
10,QVQLVESGGGLVQAGGSLRLSCAASVLTFITNVMVWYRQAPGKERELVAVISSRGGTTYYADSVKGRFTISRDNAKNTVYLQMNSLKPEETAVYYCNRVRSPKYDWGQGTQVTVSS,high polyreactivity
11,QVQLVESGGGLVQAGGSLRLSCAASVPTFPFNAMGWYRQAPGKERELVAAISWRDGRTYYADSVKGRFTISRDNAKNTVYLQMNSLKPEDTAVYYCNVVKRRSDWGMDYWGQGTKVTVSS,high polyreactivity
12,QVQLVESGGGLVQAGGSLRLSCAASVRIFGKYAMGRYRQAPGKERELVAAITNSGGRTYYAASVKGRFTISRDNAKNTVYLQMNSLKPEDTAVYYCAALYHASTRQMDYWGQGTQVTVSS,high polyreactivity
13,QVQLVESGGGLVQAGGSLRLSCAASVRIFGSNVMGWYRQAPGKERELVAAINWIGGSTYYADSVKGRFTISRDNAKNTVYLQMNSLKPEDTAVYYCARKRYNGRGYVGYYYWGQGTQVTVSS,high polyreactivity
14,QVQLVESGGGLVQAGGSLRLSCAASVRIFGYNAMGWSRQAPGKERYLVAAITTSGGSTYYADSVKGRFTISRDNAKNTVYLQMNSLKPEDTAVYYCARDSLQVFYPYASDDYWGQGTQVTVSS,low polyreactivity
15,QVQLVESGGGLVQAGGSLRLSCAASVRIFQYYVMGWYIQAPGKERELVAAITSGGGTKYADSVKGRFTISRDNAKNTVYLQMNSLIPEDTAVYFCAAAWFDQYSRYDYWGQGTQVTVSS,low polyreactivity
16,QVQLVESGGGLVQAGGSLRLSCAASVRIFRGNDMGWYRKAPGKERELVARITGNDGDTYYADSVKGRFTISRDNAKNTVYLQMNSLKPEDTAVYYCATDTSSYRRRYYYWGQGTQVTVSS,low polyreactivity
17,QVQLVESGGGLVQAGGSLRLSCAASVRIFRYYVMGWYRQAPGKVRELVAAITSGTSTNFAESVKGRFTISRDNAKNTVYLQMNRLKPEDTAVFYCAVRSPRGGRTRFNSNYWGQGTQVTVSS,high polyreactivity
18,QVQLVESGGGLVQAGGSLRLSCAASVRLFRGYAMGWYRQAPGKERELVAGITSGGSTKYADSVKGRFTISRDNAKNTVYLQMNSLKPEDTAVYDCAKGYLAYSYYARPYIRYYWGQGTQVTVSS,high polyreactivity
19,QVQLVESGGGLVQAGGSLRLSCAASVRTFDSYTMGWYRPAPGKERELVAAIRSSGGRTYADSVKGRFTISRDNAKNTVYLQMNSLKPEDTAVYYCAAARSYWAKYYYWGQGTQVTVSS,high polyreactivity
20,QVQLVESGGGLVQAGGSLRLSCAASVRTFGGYAMGLYRQAPGKERELVAAITSDTGTNYADSVKGRFTISRDNAKNTVYLEMNSLKPEDTAVYYCAADTPYSYYLNIYWKGMDYWGQGTQVTVSS,low polyreactivity
21,QVQLVESGGGLVQAGGSLRLSCAASVRTFHYYAMGWYRQAPGKERELVAGITGGGSTYYADSVKGRFTISRDNAKNTVYLLMNSLKPEDTAVYYCADDRSYYGYGYCGQGTQVTVSS,low polyreactivity
22,QVQLVESGGGLVQAGGSLRLSCAASVSIFGYYAMGWYRPAPGKEMELVAAISSGGNTNYADSVKGRFTISRDNAKNTVYLQMISLKQEDTAVYYCATRARYKRIRYDYWGQGTQVTVSS,high polyreactivity

row,Sequence,polyreactivity (PSR sort gate)
1,QVQLVESGGGLVQAGGSLRLSCAASVSIFIANVMGWYRQAPGKERELVAAITRTSSTYYADSVKGRFTISRDNAKNTVYLQMNSLKPEDTAVYYCAKLYGVVGRWYRSSYGYWGQGTQVTVSS,high polyreactivity
2,QVQLVESGGGLVQAGGSLRLSCAASVSISLYYAMGWYRQAPGKERELVAAISTRGGSTYYADSVKGRFTISRDNAKNTVYLQMNSLKPEDTAVYYCAARTRLTADPRYGISSKMYYWGQGTQVTVSS,high polyreactivity
3,QVQLVESGGGLVQAGGSLRLSCAASVSLSGYYAMGWYRTGPGKERELVASIRYTGALTYYADTVKGRFTISRDNAKNTVYLQMNSLKPEDTAGYYCAADVKRDRVWGGDYWGQGTQVTVSS,low polyreactivity
4,QVQLVESGGGLVQAGGSLRLSCAASVSPFWLNAMGWYRPAPGKEREFVAAITVGGGSTYYADSVKGRFTISRDNAKNTDYLQMNSLKPEDTAVYYCAALYRFWYPGNSYDYWGQGTQVTVSS,high polyreactivity
5,QVQLVESGGGLVQAGGSLRLSCAASVSTFAVYAMGWYRQAPGKERELVAAISSSGDRTFYADSVKGRFTISRDNAKNTVYLQMNSLKPEDTAVYYCNVPYKYRRAYDGGYDYWGQGTQVTVSS,high polyreactivity
6,QVQLVESGGGLVQAGGSLRLSCAASVSTFFRYAKRWYRQAPGKERELVAAISKRGGSTSYADSVKGRFTISRDNAKNTVYLQMNSLKPEDTAVYYCATVYWLFARYDYWGQGTQVTVSS,high polyreactivity
7,QVQLVESGGGLVQAGGSLRLSCAASVSTFQVYGMGWYREAPGKERELVAAISYSGGRTYYADSVKGRFTISRDNAKNTVYLQMNILKPEDTAVYYCNAVLAHDPRLDYWGQGTQVTVSS,high polyreactivity
8,QVQLVESGGGLVQAGGSLRLSCAASVSTFQYNARGWYRQAPGKEMELVAAITSRGGSTYYADSVKGRFTISRDNAKNTVYLQMNSLKPEDTALYYCAALLSKSGRFDRAKVTAYGYWGQGTQVTVSS,low polyreactivity
9,QVQLVESGGGLVQAGGSLRLSCAASVSTLSDNAMGWYRQAPGKERELVASISWSGGTYYADSVKGRFTISRDNAKNTVYLQMNSLKPEDTAVYYCAAYIYYNYSRQYWYDYWGQGTQVTVSS,low polyreactivity
10,QVQLVESGGGLVQAGGSLRLSCAASWYTMGWYRQAPGKERELVAAITGGGSTNYADSVKGRFTISRDNAKNTVYLQMNSLKPEDTAVYYCAKTRVLLNSYSYNIIYDYWGQGTQVTVSS,low polyreactivity
11,QVQLVESGGGLVQAGGSLRLSCAATGFIFAANAMGWYRQAPGKERELVAAINYRGSSTYYADSVKGRFTISRDNAKNTVYLQMNSLKPEDTAVYYCAARSGAQRGGGYWGQGTQVTVSS,high polyreactivity
12,QVQLVESGGGLVQAGGSLRLSCAATGFIFERNAMGWYRQAPGKERELVAVISYSGGRTYYADSVKGRFTISRDNANNTVYLQMNSLKPEDTAVYYCAATIVKYGYHYDYWGQGTQVTVSS,high polyreactivity
13,QVQLVESGGGLVQAGGSLRLSCAATGFTFFRYAMGWYRQARGKERELVAAITYSGSSTYYADSVKGRFTISRDNAKNTGYLQRNSLKPEDTAVYYCNAVQGFYSWVLYYYAYDYWGQGTQVTVSS,high polyreactivity
14,QVQLVESGGGLVQAGGSLRLSCAATGFTFGSNVMGWYRQAPGKERELVATIRRGGSTNYADSVKGRFTISRDNAKNTVYLQLNSLKPEDTAVYYCATRYREWGQGTQVTVSS,high polyreactivity
15,QVQLVESGGGLVQAGGSLRLSCAATGFTFRFYAIGWYRQAPGKERELVAAISSRGTTTYYADSVKGRFTISRDNAKNTVYLQMNSLKPEDTAVYYCNKEYTTYGYDLEYDYWGQGTQVTVSS,low polyreactivity
16,QVQLVESGGGLVQAGGSLRLSCAATGFTFYKNAMGWYRQAAGKDRELVAAITRGGTTNYADSVMGRFTISRDNAKNTVYLQMNSLKEEDTAVYYCAKQGRYLTRYGYWGQGTQVTVSS,high polyreactivity
17,QVQLVESGGGLVQAGGSLRLSCAATGFTFYVNAMGWYRQAPGKERELVAGITTSDGSTYYADSVKGRFTISRDNAKNTVYLQMNSLKPEDTAVYYCAAAITWYQLYQRSGGDYWGQGTQVTVSS,low polyreactivity
18,QVQLVESGGGLVQAGGSLRLSCAATGIIFHRYVMGWYRQAPGKERELVAVITQRGGSTYYADSVKGRFTISRDNAKNTVYLQMNSLKQEDTAVYYCAARSQYRDRTGQYGYWGQGSQVTVSS,high polyreactivity
19,QVQLVESGGGLVQAGGSLRLSCAATGIIFRDYGKGWYRHAPGKQREFVATITYSGGGTYYADSVKGRFTISRDNAKNTVYLQMNSLKPEDTAVYYCAAYPFYYDLAYDYWGQGTQVTVSS,low polyreactivity
20,QVQLVESGGGLVQAGGSLRLSCAATGIIIDSNAMGWYRQAPGKERELVAAITSGGSTKYADSVKGRFTISRDNAKNTVYLQMNSLKPEDTAVYYCAAGGSYYRDDYWGQGTQVTVSS,low polyreactivity
21,QVQLVESGGGLVQAGGSLRLSCAATGLIFAYNTMGWYRQAPGKERELVAGITSSGSTYYADSVKGRFTISRDNAKNTVYVQMNSLKPEDTAVYYCAAEWDDGRSWYWYYLVGFEYWGQGTQVTVSS,high polyreactivity
